The record followed here is article PMC7745056.

In the data set the target is T1, IiWRKY34 (Isatis indigotica, UniProt A0A6G8R7I5 1-302).
T1 sequence: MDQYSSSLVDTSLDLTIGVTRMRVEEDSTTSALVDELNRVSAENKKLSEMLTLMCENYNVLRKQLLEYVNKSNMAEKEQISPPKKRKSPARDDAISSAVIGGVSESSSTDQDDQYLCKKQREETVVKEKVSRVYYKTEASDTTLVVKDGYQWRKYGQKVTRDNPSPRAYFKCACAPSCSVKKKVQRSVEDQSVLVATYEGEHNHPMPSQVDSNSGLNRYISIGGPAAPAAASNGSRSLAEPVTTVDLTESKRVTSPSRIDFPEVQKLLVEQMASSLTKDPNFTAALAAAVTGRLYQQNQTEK
In words: EMSA.

B1: Ii4CL3 promoter mutated W-box probe (Ii4CL3mpF/mpR) (dsDNA)
DNA 1: TCCGATTTTTTTCATAATTAATTTGAAATGTGCGGTTGATTTTTTTCCAA
DNA 2: TTGGAAAAAAATCAACCGCACATTTCAAATTAATTATGAAAAAAATCGGA
Regarding B1, the binding result was “no binding”.
